Assay results as given in PMC3961674, “Novel Ubiquitin-derived High Affinity Binding Proteins with Tumor Targeting Properties*” (The Journal of Biological Chemistry, 2014).

Molecular target: 77405-MSA (77405 fused to mouse serum albumin) (human | mouse, UniProt P0CG48 1-76; P0CG48 1-76, Gln-2 to Arg | Phe-4 to Trp | Lys-6 to His | Gln-62 to Asn | Lys-63 to Pro | …)
Assay: ELISA; 67B89 target or 6789 off-target coated on Medisorp 96-well plates; variant in serial dilutions, 1 h; detection with anti-Ubi-Fab-POD; apparent KD by hyperbolic fit
Conditions: both partners purified

Kd: 0.58 nM
B1: 67B89 (ED-B domain of fibronectin flanked by its N-terminal domains 6 and 7 and C-terminal domains 8 and 9) (domain or fragment)
chain: not shown
notes: fibronectin, UniProt P02751 isoform 7, residues 1080-1541 (domains 6, 7, ED-B, 8, 9); numbers count on: isoform 7; tag-free, from pET28a; gene synthesis; also called 67B89 target; ED-B target; source: E. coli HMS174 (DE3), purified (Q-Sepharose FF, ammonium sulfate precipitation, Phenyl HP, Q Sepharose HP)
